The target in experiment [1] is T1, human IL6R expressed on cell surface (human, UniProt P08887 20-468).
T1 construct: whole, on cells; also called cell surface human IL6R; U266 cells expressing human IL6R
T1 sequence (looked up): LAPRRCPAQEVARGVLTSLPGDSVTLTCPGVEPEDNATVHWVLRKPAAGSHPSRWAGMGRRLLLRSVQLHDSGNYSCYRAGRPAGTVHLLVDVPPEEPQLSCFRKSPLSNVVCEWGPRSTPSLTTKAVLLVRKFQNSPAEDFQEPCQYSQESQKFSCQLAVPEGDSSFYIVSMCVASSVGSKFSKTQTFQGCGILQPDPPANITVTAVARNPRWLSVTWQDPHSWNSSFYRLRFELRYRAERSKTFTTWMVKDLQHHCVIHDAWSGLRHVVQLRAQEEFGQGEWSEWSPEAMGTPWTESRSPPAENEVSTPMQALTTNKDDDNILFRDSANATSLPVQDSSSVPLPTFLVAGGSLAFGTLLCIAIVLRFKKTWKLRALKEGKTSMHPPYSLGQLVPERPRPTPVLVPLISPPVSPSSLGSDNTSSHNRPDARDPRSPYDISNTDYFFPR
As to the kind of experiment: cell-based binding FACS on U266 cells. How it is done:
The binding activities of the mouse anti-IL6R antibodies to IL6R expressed on cell surface were tested by flow cytometry (FACS). Briefly, human myeloma cells U266 (ATCC® TIB-196™) were harvested from cell culture flasks, washed twice and resuspended in phosphate buffered saline (PBS) containing 2% v/v Fetal Bovine Serum (FACS buffer). 2×10⁵ U266 cells per well were incubated in 96 well-plates with 100 μl of the anti-IL6R antibodies or controls at various concentrations (starting at 40 nM with a 3-fold serial dilution in FACS buffer) for 40 minutes on ice. Cells were washed twice with FACS buffer, and added with 100 μL/well R-Phycoerythrin AffiniPure F(ab′)₂ Fragment Goat Anti-Mouse IgG (H+L) (1:1000 dilution in FACS buffer, Jackson ImmunoResearch Laboratories, Inc., Cat #115-116-146). Following an incubation of 40 minutes at 4° C. in dark, cells were washed three times and resuspended in FACS buffer. Fluorescence was measured using a Becton Dickinson FACS Canto II-HTS equipment. Data was analyzed using Graphpad Prism software and EC₅₀ values were reported.

Experiment [2] concerns the target T2, macaca IL6R-his protein (macaca mulatta).
T2 chain: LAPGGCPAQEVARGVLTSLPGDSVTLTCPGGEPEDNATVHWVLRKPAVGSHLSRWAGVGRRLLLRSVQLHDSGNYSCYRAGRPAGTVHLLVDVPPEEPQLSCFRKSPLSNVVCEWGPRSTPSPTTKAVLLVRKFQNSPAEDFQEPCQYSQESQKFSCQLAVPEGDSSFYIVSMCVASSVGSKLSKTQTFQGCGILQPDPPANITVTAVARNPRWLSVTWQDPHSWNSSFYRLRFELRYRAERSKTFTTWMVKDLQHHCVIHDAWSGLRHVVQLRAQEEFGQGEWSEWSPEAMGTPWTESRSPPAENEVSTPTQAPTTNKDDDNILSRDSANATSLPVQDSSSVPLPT
As to the kind of experiment: indirect ELISA on plate-coated macaca IL6R-his.

The target of experiment [3] is T2, macaca IL6R-his protein. As to the kind of experiment: SPR Biacore; purified antibody captured by anti-human IgG on CM5, antigen in flow.
Experiment [4] concerns the target T3, recombinant human IL6R-his (human, UniProt P08887 20-365).
T3 construct: In house made; the entry includes the C-terminal His tag; also called human IL6R-his protein
T3 sequence: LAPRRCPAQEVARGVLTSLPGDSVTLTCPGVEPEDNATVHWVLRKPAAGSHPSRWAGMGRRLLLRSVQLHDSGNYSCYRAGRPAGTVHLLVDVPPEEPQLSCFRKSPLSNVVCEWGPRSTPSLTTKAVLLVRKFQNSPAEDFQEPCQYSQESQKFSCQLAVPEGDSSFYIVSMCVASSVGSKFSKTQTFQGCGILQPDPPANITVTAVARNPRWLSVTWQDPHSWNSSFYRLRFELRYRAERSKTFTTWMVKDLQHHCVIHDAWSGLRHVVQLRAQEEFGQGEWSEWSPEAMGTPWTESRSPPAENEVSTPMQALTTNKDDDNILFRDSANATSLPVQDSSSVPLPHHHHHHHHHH
Described as above.

Experiment [5] deals with T4, human IL6R-Fc protein (human, biotin-labeled in the ELISAs (sites not given)).
T4 construct: In house made; also called biotin-labeled human IL6R-Fc protein
As to the kind of experiment: benchmark blocking ELISA: antibody pre-incubated with biotin-labeled human IL6R-Fc, added to plate-coated Tocilizumab (competitor: Tocilizumab). How it is done:
(§1) ELISA plates were washed once with wash buffer (PBS+0.05% v/v Tween-20, PBST) and then blocked with 200 μl/well blocking buffer (5% w/v non-fatty milk in PBST) overnight at 4° C.
(§2) The next day, the anti-IL6R antibodies of the disclosure or controls were diluted with biotin labeled human IL6R-Fc protein (SEQ ID NO: 43, 13.6 ng/ml in 2.5% w/v non-fatty milk in PBST), starting at 100 nM with a 5-fold serial dilution, and incubated at room temperature for 40 minutes. […] After incubation at 37° C. for 40 minutes, plates were washed 4 times using wash buffer. Then streptavidin conjugated HRP was added, and the plates were incubated for 40 minutes at 37° C. The plates were finally washed using wash buffer, and added with TMB. The reaction was stopped using 1M […], and the absorbance was read on a microplate reader using dual wavelength mode with 450 nm for TMB and 630 nm as the reference wavelength. The OD (450-630) values were plotted against antibody concentration. Data was analyzed using Graphpad Prism software and IC₅₀ values were reported.

The target in experiment [6] is T4, human IL6R-Fc protein. The experiment is described as above. The method, then: as §1, §2
The source holds these as a separate data set.
Target sequence in this assay (chain, as listed by the source limits assumed): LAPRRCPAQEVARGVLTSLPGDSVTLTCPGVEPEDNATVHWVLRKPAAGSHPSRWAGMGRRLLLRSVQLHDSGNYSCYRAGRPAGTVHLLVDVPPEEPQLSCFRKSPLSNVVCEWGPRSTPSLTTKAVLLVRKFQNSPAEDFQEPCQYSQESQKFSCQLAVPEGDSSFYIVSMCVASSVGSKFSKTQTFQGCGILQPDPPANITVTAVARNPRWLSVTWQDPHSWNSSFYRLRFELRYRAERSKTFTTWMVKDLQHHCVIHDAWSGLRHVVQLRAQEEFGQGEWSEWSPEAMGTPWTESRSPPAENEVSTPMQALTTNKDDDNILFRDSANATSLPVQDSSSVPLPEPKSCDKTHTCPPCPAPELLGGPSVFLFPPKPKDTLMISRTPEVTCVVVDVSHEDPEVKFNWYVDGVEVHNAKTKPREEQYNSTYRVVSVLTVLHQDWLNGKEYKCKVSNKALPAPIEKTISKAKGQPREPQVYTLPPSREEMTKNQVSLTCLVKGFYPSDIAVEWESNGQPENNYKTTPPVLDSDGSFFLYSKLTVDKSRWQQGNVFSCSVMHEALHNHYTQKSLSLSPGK

Experiment [7] addresses T4, human IL6R-Fc protein. Described as above. The method, then:
as §1, §2
The source holds these as a separate data set.

The target of experiment [8] is T4, human IL6R-Fc protein. Described as above. This is another data set of the same source.
Target sequence in this assay (chain, as listed by the source limits assumed): as above
The target of experiment [9] is T4, human IL6R-Fc protein. The experiment is described as above. The method, then:
as §1, §2
Target sequence in this assay (chain, as listed by the source limits assumed): as above
This is another data set of the same source.

Like-named read-outs stand apart in the source and are kept apart here.

In general, EC50 refers to the concentration needed to bring the measured effect to its halfway point. A lower EC50 goes with greater potency. For orientation: Kd means the equilibrium constant for the complex coming apart. As a reminder, the IC50 is the point on the concentration scale where inhibition reaches its midpoint.

B1: Tocilizumab (antibody, human IgG1, kappa, V domains shown)
VH: QVQLQESGPGLVRPSQTLSLTCTVSGYSITSDHAWSWVRQPPGRGLEWIGYISYSGITTYNPSLKSRVTMLRDTSKNQFSLRLSSVTAADTAVYYCARSLARTTAMDYWGQGSLVTVSS
VL: DIQMTQSPSSLSASVGDRVTITCRASQDISSYLNWYQQKPGKAPKLLIYYTSRLHSGVPSRFSGSGSGTDFTFTISSLQPEDIATYYCQQGNTLPYTFGQGTKVEIKR
notes: In house made; also called benchmark; Actemra
As for B1, the EC50 in experiment [1] worked out at 1.49 nM; with macaca IL6R-his protein [2], 0.201 nM. Besides, the Kd worked out at 9.16 nM with macaca IL6R-his protein [3] and 7.42 nM in experiment [4]. Further, the half-inhibitory concentration (IC50) with human IL6R-Fc protein [5] is 2.58 nM; in the experiment with human IL6R-Fc protein [6], 1.41 nM; with human IL6R-Fc protein [7], 2.23 nM; in the experiment with human IL6R-Fc protein [8], 0.812 nM; with human IL6R-Fc protein [9], 0.862 nM.
